Experimental data published in patent US20230212319A1, “NOVEL ANTIGEN BINDING DOMAINS AND SYNTHETIC ANTIGEN RECEPTORS INCORPORATING THE SAME” (University of Southern California, priority 2020, published 2023).

Columns and labels:
L363 cells = assay: JNG assay, co-culture with L363 cells; assay type: cell-based; conditions: co-culture with L363
Summary of the method: (§1)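 Read-out is NFAT-driven GFP measured by flow cytometry after ~4–18 h co-culture of SAR-expressing JNG cells with target cells (E:T about 1:2). SARs were introduced by lentiviral spinfection and selected with puromycin or blasticidin when possible; scores (+/- to 5+ ≈ 5–50% GFP+) are relative to parental JNG cells.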

RAJI cells = assay: JNG assay, co-culture with RAJI cells; assay type: cell-based; conditions: JNG cells expressing construct, co-culture with Raji
Summary of the method: as §1

Molecule | NFAT-GFP ASSAY: L363 (L363 cells) | NFAT-GFP ASSAY: Raji (RAJI cells)
22073 (protein) MALPVTALLLPLALLLHAARPQLQLQESGPGLVKPSETLSLTCTVSGDSISSGDYYWGWIRQPPGKGLEWIGHIYYSGVTYYNPSLKSRVTISVDTSRNQFSLKLSSVTAADTAVYYCTREDSSNWRSRGQGTLVTVSSLEGQPKANPTVTLFPPSSEELQANKATLVCLISDFYPGAVTVAWKADGSPVKAGVETTKPSKQSNNKYAASSYLSLTPEQWKSHRSYSCQVTHEGSTVEKTVAPTECSGRADCGFTSESYQQGVLSATILYEILLGKATLYAVLVSALVLMAMVKRKDSRGRAKRSGSGATNFSLLKQAGDVEENPGPTSMDWIWRILFLVGAATGAHSFEVQLLESGGGLIQPGGSLRLSCAASGFTFSSHAMTWVRQAPGKGLEWVSAISGSGDYTHYADSVKGRFTISRDNSKNTVYLQMNSLRAEDSAVYYCAKDEDGGSLLGHRGQGTLVTVSSTRIQNPDPAVYQLRDSKSSDKSVCLFTDFDSQTNVSQSKDSDVYITDKCVLDMRSMDFKSNSAVAWSNKSDFACANAFNNSIIPEDTFFPSPESSCDVKLVEKSFETDTNLNFQNLSVIGFRILLLKVAGFNLLMTLRLWSSRAKRSGSGVKQTLNFDLLKLAGDVESNPGPSRGHMTEYKPTVRLATRDDVPRAVRTLAAAFADYPATRHTVDPDRHIERVTELQELFLTRVGLDIGKVWVADDGAAVAVWTTPESVEAGAVFAEIGPRMAELSGSRLAAQQQMEGLLAPHRPKEPAWFLATVGVSPDHQGKGLGSAVVLPGVEAAERAGVPAFLETSAPRNLPFYERLGFTVTADVEVPEGPRTWCMTRKPGA | +/- (refer to approximately 5%, 10%, 20%, 30%, 40% and 50% GFP positive cells) | +/- (refer to approximately 5%, 10%, 20%, 30%, 40% and 50% GFP positive cells)
22052 (protein) MALPVTALLLPLALLLHAARPQLQLQESGPGLVKPSETLSLTCTVSGDSISSGDYYWGWIRQPPGKGLEWIGHIYYSGVTYYNPSLKSRVTISVDTSRNQFSLKLSSVTAADTAVYYCTREDSSNWRSRGQGTLVTVSSLEDKTHTCPPCPAEVKTDSTDHVKPKETENTKQPSKSCHKPKAIVHTEKVNMMSLTVLGLRMLFAKTVAVNFLLTAKLFFLRAKRSGSGVKQTLNFDLLKLAGDVESNPGPTSMDWIWRILFLVGAATGAHSFEVQLLESGGGLIQPGGSLRLSCAASGFTFSSHAMTWVRQAPGKGLEWVSAISGSGDYTHYADSVKGRFTISRDNSKNTVYLQMNSLRAEDSAVYYCAKDEDGGSLLGHRGQGTLVTVSSTRDKTHTCPPCPAIPEDTFFPSPESSCDVKLVEKSFETDTNLNFQNLSVIGFRILLLKVAGFNLLMTLRLWSSRAKRSGSGVKQTLNFDLLKLAGDVESNPGPSRGHMTEYKPTVRLATRDDVPRAVRTLAAAFADYPATRHTVDPDRHIERVTELQELFLTRVGLDIGKVWVADDGAAVAVWTTPESVEAGAVFAEIGPRMAELSGSRLAAQQQMEGLLAPHRPKEPAWFLATVGVSPDHQGKGLGSAVVLPGVEAAERAGVPAFLETSAPRNLPFYERLGFTVTADVEVPEGPRTWCMTRKPGA | +/- (refer to approximately 5%, 10%, 20%, 30%, 40% and 50% GFP positive cells) | +/- (refer to approximately 5%, 10%, 20%, 30%, 40% and 50% GFP positive cells)
22051 (protein) MALPVTALLLPLALLLHAARPQLQLQESGPGLVKPSETLSLTCTVSGDSISSGDYYWGWIRQPPGKGLEWIGHIYYSGVTYYNPSLKSRVTISVDTSRNQFSLKLSSVTAADTAVYYCTREDSSNWRSRGQGTLVTVSSLEDKTHTCPPCPAGRADCGFTSESYQQGVLSATILYEILLGKATLYAVLVSALVLMAMVKRKDSRGRAKRSGSGATNFSLLKQAGDVEENPGPTSMDWIWRILFLVGAATGAHSFEVQLLESGGGLIQPGGSLRLSCAASGFTFSSHAMTWVRQAPGKGLEWVSAISGSGDYTHYADSVKGRFTISRDNSKNTVYLQMNSLRAEDSAVYYCAKDEDGGSLLGHRGQGTLVTVSSTRDKTHTCPPCPAEVKTDSTDHVKPKETENTKQPSKSCHKPKAIVHTEKVNMMSLTVLGLRMLFAKTVAVNFLLTAKLFFL | +/- (refer to approximately 5%, 10%, 20%, 30%, 40% and 50% GFP positive cells) | +/- (refer to approximately 5%, 10%, 20%, 30%, 40% and 50% GFP positive cells)
22041 (protein) MALPVTALLLPLALLLHAARPQLQLQESGPGLVKPSETLSLTCTVSGDSISSGDYYWGWIRQPPGKGLEWIGHIYYSGVTYYNPSLKSRVTISVDTSRNQFSLKLSSVTAADTAVYYCTREDSSNWRSRGQGTLVTVSSLEGSGRADCGFTSESYQQGVLSATILYEILLGKATLYAVLVSALVLMAMVKRKDSRGRAKRSGSGATNFSLLKQAGDVEENPGPTSMDWIWRILFLVGAATGAHSFEVQLLESGGGLIQPGGSLRLSCAASGFTFSSHAMTWVRQAPGKGLEWVSAISGSGDYTHYADSVKGRFTISRDNSKNTVYLQMNSLRAEDSAVYYCAKDEDGGSLLGHRGQGTLVTVSSTRDKTHTCPPCPAIPEDTFFPSPESSCDVKLVEKSFETDTNLNFQNLSVIGFRILLLKVAGFNLLMTLRLWSSRAKRSGSGVKQTLNFDLLKLAGDVESNPGPSRGHMTEYKPTVRLATRDDVPRAVRTLAAAFADYPATRHTVDPDRHIERVTELQELFLTRVGLDIGKVWVADDGAAVAVWTTPESVEAGAVFAEIGPRMAELSGSRLAAQQQMEGLLAPHRPKEPAWFLATVGVSPDHQGKGLGSAVVLPGVEAAERAGVPAFLETSAPRNLPFYERLGFTVTADVEVPEGPRTWCMTRKPGA | + (refer to approximately 5%, 10%, 20%, 30%, 40% and 50% GFP positive cells) | + (refer to approximately 5%, 10%, 20%, 30%, 40% and 50% GFP positive cells)
22034 (protein) MALPVTALLLPLALLLHAARPQLQLQESGPGLVKPSETLSLTCTVSGDSISSGDYYWGWIRQPPGKGLEWIGHIYYSGVTYYNPSLKSRVTISVDTSRNQFSLKLSSVTAADTAVYYCTREDSSNWRSRGQGTLVTVSSLESGGGGSFEEVQLLESGGGLVQPGGSLRLSCAASGFTFSSYAMSWVRQAPGKGLEWVSSISGSGDYIYYADSVKGRFTISRDISKNTLYLQMNSLRAEDTAVYYCAKEGTGANSSLADYRGQGTLVTVSSTREQKLISEEDGSGIQNPDPAVYQLRDSKSSDKSVCLFTDFDSQTNVSQSKDSDVYITDKCVLDMRSMDFKSNSAVAWSNKSDFACANAFNNSIIPEDTFFPSSDVPCDVKLVEKSFETDTNLNFQNLSVIGFRILLLKVAGFNLLMTLRLWSSRAKRSGSGVKQTLNFDLLKLAGDVESNPGPSRGRMAKPLSQEESTLIERATATINSIPISEDYSVASAALSSDGRIFTGVNVYHFTGGPCAELVVLGTAAAAAAGNLTCIVAIGNENRGILSPCGRCRQVLLDLHPGIKAIVKDSDGQPTAVGIRELLPSGYVWEG | +/- (refer to approximately 5%, 10%, 20%, 30%, 40% and 50% GFP positive cells) | +/- (refer to approximately 5%, 10%, 20%, 30%, 40% and 50% GFP positive cells)
22048 (protein) MALPVTALLLPLALLLHAARPQVQLVESGGGLVQPGGSLRLSCAASGFTFTNHAMSWVRQAPGKGLELVSSISGNGRTTYYADSVKGRFTISRDISKNTLDLQMNSLRAEDTAVYYCAKDGGETLVDSRGQGTLVTVSSLEGQPKANPTVTLFPPSSEELQANKATLVCLISDFYPGAVTVAWKADGSPVKAGVETTKPSKQSNNKYAASSYLSLTPEQWKSHRSYSCQVTHEGSTVEKTVAPTECSPIKTDVITMDPKDNCSKDANDTLLLQLTNTSAYYMYLLLLLKSVVYFAIITCCLLRRTAFCCNGEKSRAKRSGSGATNFSLLKQAGDVEENPGPTSMDWIWRILFLVGAATGAHSFEEVQLLESGGGLVQPGGSLRLSCAASGFTFSSYAMSWVRQAPGKGLEWVSSISGSGDYIYYADSVKGRFTISRDISKNTLYLQMNSLRAEDTAVYYCAKEGTGANSSLADYRGQGTLVTVSSTRASTKGPSVFPLAPSSKSTSGGTAALGCLVKDYFPEPVTVSWNSGALTSGVHTFPAVLQSSGLYSLSSVVTVPSSSLGTQTYICNVNHKPSNTKVDKRVEPKSCEVKTDSTDHVKPKETENTKQPSKSCHKPKAIVHTEKVNMMSLTVLGLRMLFAKTVAVNFLLTAKLFFLRAKRSGSGVKQTLNFDLLKLAGDVESNPGPSRGHMTEYKPTVRLATRDDVPRAVRTLAAAFADYPATRHTVDPDRHIERVTELQELFLTRVGLDIGKVWVADDGAAVAVWTTPESVEAGAVFAEIGPRMAELSGSRLAAQQQMEGLLAPHRPKEPAWFLATVGVSPDHQGKGLGSAVVLPGVEAAERAGVPAFLETSAPRNLPFYERLGFTVTADVEVPEGPRTWCMTRKPGA | +/- (refer to approximately 5%, 10%, 20%, 30%, 40% and 50% GFP positive cells) | + (refer to approximately 5%, 10%, 20%, 30%, 40% and 50% GFP positive cells)
22050 (protein) MALPVTALLLPLALLLHAARPQVQLVESGGGLVQPGGSLRLSCAASGFTFTNHAMSWVRQAPGKGLELVSSISGNGRTTYYADSVKGRFTISRDISKNTLDLQMNSLRAEDTAVYYCAKDGGETLVDSRGQGTLVTVSSLEGQPKANPTVTLFPPSSEELQANKATLVCLISDFYPGAVTVAWKADGSPVKAGVETTKPSKQSNNKYAASSYLSLTPEQWKSHRSYSCQVTHEGSTVEKTVAPTECSPIKTDVITMDPKDNCSKDANDTLLLQLTNTSAYYMYLLLLLKSVVYFAIITCCLLRRTAFCCNGEKSRAKRSGSGATNFSLLKQAGDVEENPGPTSMDWIWRILFLVGAATGAHSFEEVQLLESGGGLVQPGGSLRLSCAASGFTFSSYAMSWVRQAPGKGLEWVSSISGSGDYIYYADSVKGRFTISRDISKNTLYLQMNSLRAEDTAVYYCAKEGTGANSSLADYRGQGTLVTVSSTRASTKGPSVFPLAPSSKSTSGGTAALGCLVKDYFPEPVTVSWNSGALTSGVHTFPAVLQSSGLYSLSSVVTVPSSSLGTQTYICNVNHKPSNTKVDKRVEPKSCEVKTDSTDHVKPKETENTKQPSKSCHKPKAIVHTEKVNMMSLTVLGLRMLFAKTVAVNFLLTAKLFFLRAKRSGSGVKQTLNFDLLKLAGDVESNPGPSRGHMTEYKPTVRLATRDDVPRAVRTLAAAFADYPATRHTVDPDRHIERVTELQELFLTRVGLDIGKVWVADDGAAVAVWTTPESVEAGAVFAEIGPRMAELSGSRLAAQQQMEGLLAPHRPKEPAWFLATVGVSPDHQGKGLGSAVVLPGVEAAERAGVPAFLETSAPRNLPFYERLGFTVTADVEVPEGPRTWCMTRKPGA | +/- (refer to approximately 5%, 10%, 20%, 30%, 40% and 50% GFP positive cells) | + (refer to approximately 5%, 10%, 20%, 30%, 40% and 50% GFP positive cells)
